Laboratory results as given in paper PMC6452516, “Biochemical characterization of three new α-olefin-producing P450 fatty acid decarboxylases with a halophilic property” (Biotechnology for Biofuels, 2019).

How the values were obtained:
Test in all cases: GC of initial substrate consumption, Michaelis-Menten fit
Settings in all cases: 330 μM H2O2 as co-substrate, pH 7.4, 50 mM NaH2PO4, 500 mM NaCl, 10% glycerol, 30 °C, 15–40 nM enzyme
[1] = substrate: CCCCCCCCCCCC(=O)O; format: biochemical, Jeotgalicoccus sp. ATCC 8456
Source text: GC of initial substrate consumption, Michaelis-Menten fit on OleTJE

[2] = substrate: CCCCCCCCCCCC(=O)O; format: biochemical, Lacicoccus qingdaonensis
Source text: GC of initial substrate consumption, Michaelis-Menten fit on OleTSQ

[3] = substrate: CCCCCCCCCCCC(=O)O; format: biochemical, Jeotgalicoccus aerolatus
Source text: GC of initial substrate consumption, Michaelis-Menten fit on OleTJH

B1: OleTJE (Jeotgalicoccus sp. ATCC 8456) (protein)
chain: MATLKRDKGLDNTLKVLKQGYLYTTNQRNRLNTSVFQTKALGGKPFVVVTGKEGAEMFYNNDVVQREGMLPKRIVNTLFGKGAIHTVDGKKHVDRKALFMSLMTEGNLNYVRELTRTLWHANTQRMESMDEVNIYRESIVLLTKVGTRWAGVQAPPEDIERIATDMDIMIDSFRALGGAFKGYKASKEARRRVEDWLEEQIIETRKGNIHPPEGTALYEFAHWEDYLGNPMDSRTCAIDLMNTFRPLIAINRFVSFGLHAMNENPITREKIKSEPDYAYKFAQEVRRYYPFVPFLPGKAKVDIDFQGVTIPAGVGLALDVYGTTHDESLWDDPNEFRPERFETWDGSPFDLIPQGGGDYWTNHRCAGEWITVIIMEETMKYFAEKITYDVPEQDLEVDLNSIPGYVKSGFVIKNVREVVDRT
notes: purified recombinant P450 from E. coli, His-tagged (Ni-NTA); cloning of this control enzyme not described here
Protein B1 has a Km [1] of 41 ± 4 µM, a kcat [1] of 14.3 ± 0.467 s⁻¹ and a kcat/Km [1] of 350000 M⁻¹ s⁻¹.

B2: OleTSQ (Lacicoccus qingdaonensis) (protein)
chain: MATIKRDKGLDNSVKVMKQGYLYTTNQRERLGVTDGVFETRALGGKRIIVLSGKDGAELFYDNDKIERSGTLPKRVVNTLFGKGAIHTTTGKVHIDRKALFMSLMTEGNLKYLRELTRNLWFANTQRMESMDQVNVYRESIIVLTKVGTRWAGVQAPEKEIENIATDMDIMIDSFKAIGSAFKGYREAKAARRRVEDWLEDQIIQTRKGKIHPPKGTALYEFAHWKDYKGEPMDSRLCGIDLMNTFRPLIAINRFVAFGALAMYENPVAREKIKQDDDYAYMFAQEVRRFYPFVPYLPAKAKVDFQYKGYEIEKDTMLALDIYGTMHDPNVWEDPNEFYPERFKDWDGSPFDLIPQGGGDYHTNHRCAGEWMTVIIMEETMKYFASRINYDVPEQDLTVDLNSLPGYIKSGFVIENVQENVDRT
notes: recombinant, codon-optimized gene in pET28b (NdeI/XhoI), N-terminal His6 tag, E. coli BL21(DE3), Ni-NTA
Work on B2 yielded a Km [2] of 35 ± 10 µM, a kcat [2] of 9.5 ± 0.917 s⁻¹ and a kcat/Km [2] of 267000 M⁻¹ s⁻¹.

B3: OleTJH (Jeotgalicoccus aerolatus) (protein)
chain: MASLKRDKGLDNTLKVMKQGYLYTTNQRNRLNTTVFETKALGGKPFAVVTGKEGAEMFYNNDIVQREGMLPKRIVNTLFGKGAIHTIDGKKHVDRKALFMSLMTEGNLNYVRELTRTLWQANTQRMESMDEVNIYRESIVLLTKVGTRWAGVQAPPEQIERIATDMDIMIDSFKGLGGVFKGYKESKAARRRVEDWLEDQILETRKGNIHPPEGTALYEFAHWEDYLGNPMDSRNCAIDLMNTFRPLIAINRFVSFGLLAMHDNPVSREKIKSEPDYAYKFAQEVRRYYPFVPFLPGKAKTDIDFQGVTIPAGHGLAIDVYGTLHDESLWEDPNEFRPERFEGWDGSPFDLIPQGGGDYWTNHRCAGEWITVIIMEETMKYFAEKVTYDVPEQDLTVDLNSIPGYVKSGFVIKNVQEVVDRR
notes: as for B2
For B3, the Km [3] was 46 ± 15 µM, the kcat [3] was 15.2 ± 1.88 s⁻¹ and the kcat/Km [3] was 333000 M⁻¹ s⁻¹.
